Test results reported in patent publication US20120071394A1.

Target: human C5a receptor (C5aR) (human) (UniProt P21730)
Assay: cell-based or functional assay

Chain of human C5a receptor (C5aR) (human) (P21730 whole entry): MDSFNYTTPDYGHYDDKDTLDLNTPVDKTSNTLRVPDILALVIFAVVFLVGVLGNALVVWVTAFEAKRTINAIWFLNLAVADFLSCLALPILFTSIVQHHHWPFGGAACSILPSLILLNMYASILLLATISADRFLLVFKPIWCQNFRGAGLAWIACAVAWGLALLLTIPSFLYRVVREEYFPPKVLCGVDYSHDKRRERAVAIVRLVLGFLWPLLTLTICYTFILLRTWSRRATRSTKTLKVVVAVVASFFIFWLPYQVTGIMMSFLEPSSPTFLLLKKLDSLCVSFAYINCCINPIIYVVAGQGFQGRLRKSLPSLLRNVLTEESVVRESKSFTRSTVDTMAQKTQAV

Substance	C5aR blocking activity (in neutrophils), % of wt CHIPS1-121 (% of wt CHIPS1-121)	Chemotaxis IC50 [nM]	IC50 of inhibition of calcium release, ratio to CHIPS1-121 (fold of the IC50 of CHIPS1-121)	IC50 of inhibition of neutrophil migration towards C5a, ratio to CHIPS1-121 (fold of the IC50 of CHIPS1-121)	concentration needed for 50% inhibition of calcium release (IC50), neutrophils stimulated with C5a [nM]
ADC-1004 (from UniProt A6QIG7 59-138)	> 50	49	2	4	0.4
Wild-type CHIPS1-121 (Chemotaxis Inhibitory Protein of Staphylococcus aureus) (from UniProt A6QIG7 29-149)		8.2			
